Experiments:
[1] = tested on: CXCR2-expressing cells; assay: In vivo migration inhibitory activity test on CXCR2-expressing cells, OCUM-12 orthotopic transplantation (prevention model); parameters: species or system mouse; settings: for Migration of CXCR2-expressing cells (CXCR2-positive cells per unit area in gastric tumor sections): 20 mg/kg intraperitoneally twice a week, compared to PBS or mouse IgG1
Text: (§1) The stomachs after measurement of the tumor size in [3-1] above were excised and fixed overnight at room temperature with a 10% neutral buffered formalin solution (Wako Pure Chemical Industries, Ltd., Japan), followed by replacement with PBS. Then, paraffin embedding and section preparation were outsourced to Applied Medical Research Laboratory, Japan. The prepared gastric tumor sections were immunohistologically stained with an anti-CXCR2 antibody to evaluate in vivo CXCR2 cell migration inhibitory activity. The sections were deparaffinized and rehydrated, and then treated to inactivate endogenous peroxidase. After antigen activation treatment, the sections were blocked with PBS containing 2% skimmed milk and 0.1% Tween-20, and reacted overnight at 4° C. with an anti-CXCR2 antibody (Biorbyt) as a primary antibody, which had been diluted to 0.3 μg/mL with the blocking solution. After washing with PBS containing 0.1% Tween-20, the sections were reacted at room temperature for 1 hour with an HRP-labeled goat anti-rabbit IgG antibody (Abcam) as a secondary antibody. After washing with a washing solution, a simple stain DAB solution (5052, Nichirei Corporation, Japan) was used to cause color development. After images of the stained tissues were captured with an Explore (Olympus Corporation, Japan), imaging software CellSens (Olympus Corporation, Japan) was used to calculate CXCR2-positive cells per unit area.
Navarixin is among small molecular compounds that act on CXCR2 and inhibit CXCL1-CXCR2 signaling. […] Then, using a model with OCUM-12 orthotopic transplantation, the migration inhibition of CXCR2-expressing cells and antitumor activity were evaluated in vivo for Navarixin. As a vehicle, ultrapure water containing 20% 2-hydroxypropyl-β-cyclodextrin (FUJIFILM Wako Pure Chemical Corporation, Japan) was used. Navarixin (MedChemExpress) was dissolved in ultrapure water containing 20% 2-hydroxypropyl-β-cyclodextrin, and orally administered at a dose of 100 mg/kg/day in a schedule of once a day for 5 consecutive days, followed by a 2-day withdrawal.
as §1, with “after measurement were excised” for “after measurement of the tumor size in [3-1] above were excised”, “and 0.1% Tween-20 (hereinafter referred to as the blocking solution), and reacted” for “and 0.1% Tween-20, and reacted”, “been diluted 1667-fold with the” for “been diluted to 0.3 μg/mL with the”, “to calculate positive cells per” for “to calculate CXCR2-positive cells per”
The dose-response relationship between antibody dose and in vivo antitumor activity or CXCR2 migration inhibitory activity was evaluated in a xenograft prevention model with OCUM-12 orthotopic transplantation. A prevention model is a model designed to start antibody administration from the day following tumor transplantation. […]

[2] = biological target: T1, human CXCL3 (Homo sapiens, UniProt P19876); assay: Binding to human CXCL3
T1 sequence (P19876 35-107): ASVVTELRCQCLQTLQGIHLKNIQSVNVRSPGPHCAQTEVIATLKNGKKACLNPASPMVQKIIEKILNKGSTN

[3] = tested on: migration of HuCXCR2-expressing cells toward HuCXCL1; assay: Migration assay (Boyden chamber chemotaxis) of HuCXCR2-expressing cells toward HuCXCL1; type: cell-based, human; settings: HuCXCL1 200 ng per ml in lower chamber
Description: The 80 clones with neutralizing activity against HuCXCL1 were evaluated for their inhibitory activity against the migration of HuCXCR2-expressing cells toward HuCXCL1.
Cell chemotaxis was measured by Boyden chamber assay, and QCM Chemoraxis Cell Migration Assay (Sigma-Aldrich Corporation) was purchased and used as an assay kit. AequoScrenn/CXCR2 cells were used as HuCXCR2-expressing cells. An isotype control antibody and a goat anti-HuCXCL1 polyclonal antibody (hereinafter referred to as AF275) were purchased from R&D Systems and used.
The HuCXCR2-expressing cells were cultured overnight at 37° C. in a serum-free culture medium, and then suspended in the assay buffer and adjusted to 2×10^6 cells per ml. The upper chamber of a Boyden chamber was filled with the HuCXCR2-expressing cell suspension, while the lower chamber was filled with the assay buffer alone or a solution containing HuCXCL1 in an amount of 200 ng per ml with or without a purified antibody, followed by incubation overnight at 37° C.
After incubation, the upper chamber was washed with PBS, placed into a new lower chamber containing a Cell Detachment Solution (Sigma-Aldrich Corporation), and then allowed to stand at 37° C. for 30 minutes to detach the migrated cells adhered to the bottom of the membrane in the upper chamber.
The migrated cell suspension was supplemented with 4× Lysis Buffer (Sigma-Aldrich Corporation) in a volume of 75 μL per well and allowed to stand at room temperature for 20 minutes, followed by measurement of fluorescence at an excitation wavelength of 480 nm and a fluorescence wavelength of 520 nm. The above about 80 clones were screened and evaluated for their inhibitory activity against the migration of CXCR2 cells.

[4] = biological target: T2, HuCXCL1 (Homo sapiens, UniProt P09341); assay: HuCXCL1 binding activity, antigen-immobilized ELISA; settings: HuCXCL1 immobilized at 3 μg/mL
T2 construct: made in house; host or cells: Expi293 expression system (transient), protein from the culture supernatant
T2 sequence (P09341 35-107): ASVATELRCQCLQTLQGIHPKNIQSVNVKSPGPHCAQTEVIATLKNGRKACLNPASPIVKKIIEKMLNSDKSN
Description: Antibodies produced from the hybridomas were evaluated for their HuCXCL1 binding activity by ELISA assay using plates on which the antigen (HuCXCL1 protein) used for immunization had been directly immobilized.
To 96-well plates, phosphate-buffered saline (PBS) containing 3 μg/mL of HuCXCL1 was added in a volume of 50 μL per well, and the plates were allowed to stand overnight at 4° C. After removal of the antigen solution, PBS containing 2% skimmed milk and 0.05% Tween-20 (hereinafter referred to as the blocking solution) was added to each well for blocking reaction, and the plates were allowed to stand at room temperature for 1 hour. After removal of the blocking solution, the culture supernatants of the hybridomas or DT40 were each added in a volume of 50 µL per well and reacted at room temperature for 1 hour. After removal of the culture supernatants and washing with PBS containing 0.05% Tween-20, an HRP-labeled secondary antibody diluted with the blocking solution was added and reacted at room temperature for 1 hour. After washing, TMB (Dako) was added as a chromogenic substrate solution to cause color development, and after 10 minutes, 1 N sulfuric acid was added to stop the reaction, followed by measurement of absorbance at 450 nm.

B1: Hu5A-5E11: humanized antibody VH1/VL1; VH SEQ ID NO: 76, VL SEQ ID NO: 78 (antibody, V domains shown)
VH: QVQLVQSGAEVKKPGSSVKVSCKASGYAFSDYWMNWVRQAPGQGLEWIGQIYPGSGDTNYNAKFKGKGTITADKSTSTAYMELSSLRSEDTAVYYCARERDYDVAMDYWGQGTTVTVSS
VL: DIQMTQSPSSLSASVGDRVTITCKASQDINKYIAWFQQKPGKAPKLVIHYTSILQPGVPSRFSGSGSGTDYTFTISSLQPEDIATYYCLQYDNLPWTFGGGTKVEIK
Migration of CXCR2-expressing cells (positive cells per unit area) ([1]; 400 μg/head intraperitoneally twice a week, 3 weeks, compared to hIgG1 antibody): significantly suppress the migration of CXCR2-expressing cells | Dose at which the migration suppressive effect tended to reach a plateau ([1]; prevention model): ≥ 60 μg/head

B2: 4A-2F7: mouse monoclonal anti-HuCXCL1 antibody clone; VH SEQ ID NO: 9, VL SEQ ID NO: 13 (antibody, listed as Mus musculus, V domains shown)
VH: QVTLKESGPGILKPSQTLSLTCSFSGFSLSTSGMGVDWIRQPSGKGLEWLAHIWWDDDKYYNPSLKSQLTISKDTSRNQVFLKITSVDTADTATYYCARSYGYDMDYYAMDYWGQGTSVTVSS
VL: DIQMTQSPSSLSASLGERVSLTCRASQEISGYLSWLQQKPDGTIKRLIYAASTLDSGVPKRFSGSRSGSDYSLTISSLESEDFADYYCLQYASYPPWTFGGGTKLEIK
Binding to human CXCL3 [2]: also bind | CXCR2-expressing cell migration inhibitory activity Chemotaxis assay [3]: ∘ | Migration of CXCR2-expressing cells (CXCR2-positive cells per unit area in gastric tumor sections) ([1]; 3 weeks): significantly suppress the migration of CXCR2-expressing cells | Binding activity to HuCXCL1 ELISA [4]: ∘

B3: 1A-7H10: mouse monoclonal anti-HuCXCL1 antibody clone; VH SEQ ID NO: 1, VL SEQ ID NO: 5 (antibody, listed as Mus musculus, V domains shown)
VH: QVQLKESGPVLVAPSQSLSITCSVSGFSSTTYGVHWVRQPPGQGLEWLGVIWAGGSTNYNSALMSRLSISKDNSKSQVFLKMNSLQTDDTAMYYCATQYHYPFAYWGQGTLVTVSA
VL: NIVMTQSPKSMSMSVGERVTLSCKASENVGIYVSWYQQKPEQSPKLMIYGASNRNTGVPDRFTGSGSATDFTLTISSVQAEDLADYYCGQSYSYPLTFGAGTKLELK
Binding to human CXCL3 [2]: also bind | CXCR2-expressing cell migration inhibitory activity Chemotaxis assay [3]: ∘ | Migration of CXCR2-expressing cells (CXCR2-positive cells per unit area in gastric tumor sections) ([1]; 3 weeks): significantly suppress the migration of CXCR2-expressing cells | Binding activity to HuCXCL1 ELISA [4]: ∘

B4: 028-8-12: human antibody against CXCL1 from the human ADLib technique; VH SEQ ID NO: 25, VL SEQ ID NO: 29 (antibody, listed as Gallus gallus, V domains shown)
VH: EVQLLESGGGLVQPGGSLRLSCAASGFTFSELSMSWVRQAPGKGLEWVSAISGSGGSTYYADSVKGRFTISRDNSKNTLYLQMNSLRAEDTAVYYCAREGGRLEPYYYYYAMDVWGQGTPVTVSS
VL: DIQMTQSPSSLSASVGDRVTITCRASQSISDNLHWYQQKPGKAPKLLIYDASNLESGVPSRFSGSGSGTDFTLTINSLQPEDFATYYCQQYYSTPLTFGQGTKLEIK
Binding to human CXCL3 [2]: also bind | CXCR2-expressing cell migration inhibitory activity Chemotaxis assay [3]: ∘ | Migration of CXCR2-expressing cells (CXCR2-positive cells per unit area in gastric tumor sections) ([1]; 3 weeks): significantly suppress the migration of CXCR2-expressing cells | Binding activity to HuCXCL1 ELISA [4]: ∘

B5: 5A-5E11: mouse monoclonal anti-HuCXCL1 antibody clone; VH SEQ ID NO: 17, VL SEQ ID NO: 21 (antibody, listed as Mus musculus, V domains shown)
VH: QVQLQQSGAELVRPGSSVKISCKASGYAFSDYWMNWVKQRPGQGLEWIGQIYPGDGDTNYNGKFKGKGTLTADKSSSTAYMQLNSLTSEDSAVYFCARERDYDVAMDYWGQGTSVTVSS
VL: DIQMTQSPSSLSASLGGKVTITCKASQDINKYIAWFQHKPGKGPRLVIHYTSILQPGIPSRFSGVGSGRDYSFSIRNLEPEDIATYYCLQYDNLPWTFGGGTKLEIK
Binding to human CXCL3 [2]: also bind | CXCR2-expressing cell migration inhibitory activity Chemotaxis assay [3]: ∘ | Migration of CXCR2-expressing cells (CXCR2-positive cells per unit area in gastric tumor sections) ([1]; 3 weeks): significantly suppress the migration of CXCR2-expressing cells | Binding activity to HuCXCL1 ELISA [4]: ∘

— patent US20250154240A1, “ANTI-HUMAN CXCL1 ANTIBODY” (CHIOME BIOSCIENCE INC., priority 2022, published 2025)
